Data published in patent US20090022663A1 (published 2009).

Legend:
[1] = target: T1, purified recombinant 161P2F10B extracellular domain (Tag5-161P2F10B ECD, amino acids 46-875) (human, UniProt O14638 46-875); test: SPR (BIAcore), MAb captured on chip, recombinant 161P2F10B injected, 1:1 fit;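 further: purified human MAbs immobilised by capture on a CM5 chip surface, about 150 RU of antibody per cycle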
T1 construct: also called full length ECD
Source text: Briefly, each purified human MAb is captured onto a CM5 sensor chip surface. On average approximately 150 RUs of each MAb is captured in every cycle.

[2] = target: T2, 161P2F10B variant 1 (human 161P2F10B), on the cell surface (human, UniProt O14638 1-875); test: FACS titration on KU-812 cells, one site binding fit
T2 construct: Cell surface pyrophosphatase/phosphodiesterase; also called 161P2F10B v.1; CD203c
Procedure: At the end of the incubation, cells were washed and incubated with anti-hIgG-PE detection antibody for 45 min at 4° C. After washing the unbound detection antibodies, the cells were analyzed by FACS. MFI values of each point were obtained using CellQuest Pro software and were used for the affinity calculation using Graphpad Prism software and the one site binding (hyperbola) equation.

[3] = target: T2, 161P2F10B variant 1 (human 161P2F10B), …; test: flow cytometry on cells or ELISA on immobilized 161P2F10B

Binder | Kd [1] | koff [1] | kon [1] | Kd [2] | binding result [3]
H16-9.44 (antibody, V domains shown, also called Ha16-9.44) VH: LSLTCTVSGGSISSYYWSWIRQSAGKGLEWIGRIYTGVSTNYNPSLKSRVTMSVDTSKNQFSLKLSSVTAADTAVYYCARDYYDSSGYYPFDYWGQGTLVTVSS VL: DIQMTQSPSSLSASVGDRVTISCRASQGISNYLAWFQQKPGKAPKSLIYAASSLENGVPSKFSGSGSGTDFTLTISSLQPEDFATYYCQQYNSSPFTFGPGTKVDIRR | 0.76 nM | 0.000132 s⁻¹ | 174000 M⁻¹ s⁻¹ | 1.27 nM | –
H16-1.67 (antibody, V domains shown) VH: VESGPGLVKPSQTLSLTCTVSGGSINSFGYYWSWIRQYPGKGLEWIGFLYFTGSTYYNPSLKSRVTISVDTSKSQFSLKLSSVTAADTAVYYCARAGTMVRGAHYYGMDVWGQGTTVTVSS VL: not shown | 43 nM | 0.0007 s⁻¹ | 16000 M⁻¹ s⁻¹ | 0.02 nM | –
H16-9.65 (antibody, V domains shown, Fully human XenoMouse MAb; Entries hold the leader (or part of it) and a portion of the constant region) VH: QVQLVESGGGVVQPGRSLRLSCAASGFTFSSYGMHWVRQAPGKGLEWVATIWFDGSNGYYADSVKGRFTISRDNSKNTLYLQMNSLRAEDTAVYYCARDSSGSYDHFDYWGQGTLVTVSS VL: not shown | 5 nM | 0.000464 s⁻¹ | 93700 M⁻¹ s⁻¹ | – | –
H16-9.69 (antibody, V domains shown) VH: WGLSEVSCKASGYTFTSYDIHWVRQATGQGLEWMGWMNPNSGNTVYAQKFQGRVTMTRNTSISTAYMELSSLRSEDTAVYYCARTVLLWPFDYWGQGTLVTVSS VL: not shown | 4 nM | 0.000186 s⁻¹ | 42400 M⁻¹ s⁻¹ | 0.27 nM | –
Ha16-1(3,5)36 (antibody, V domains shown) VH: EVQLVESGPGLVKPSETLSLTCTVSGGSISSSSYYWGWIRQPPGKGLEWIGSMYYSGSTYHNPSLKSRVIISVDTSKNQFSLKLSSVTAADTAVYYCARHYITVAGIFDYWGQGTLVTVSS VL: not shown | 8.7 nM | 0.00046 s⁻¹ | 52900 M⁻¹ s⁻¹ | – | –
H16-1.61.1 (antibody, V domains shown) VH: EVQLVESGGGVVQPGRSLRLSCAASGFTFSSYGMHWVRQAPGKGLEWVAVIWYDGSNKYYADSVKGRFTISRDNSKNTLYLQMNSLRAEDTAVYYCARSRITIFGVVHYGMDVWGQGTTVTVSS VL: DTQLTQSPSSLSASVGDRVTITCRASQSISSYLNWYQLKPGKAPKLLIYAASSLESGVPSRFSGSESGTDFTLTISSLQPEDFATYYCQQSYNSPITFGPGTKVDIKR | – | – | – | – | binds
H16-1.68 (antibody, V domains shown) VH: EVHLVESGGGVVQPGRSLRLSCAASGFTFRSYGMHWVRQAPGKGLEWVAVIWYDGSNKYYADSVKGRFTISRDNSKNTLYLQMNSLRAEDMAMYYCARSRITIFGVVHYGMDVWGQGTTVTVSS VL: TQLTQSPSSLSASVGDRVTITCRASQNINSYLNWYQQKPGKAPKLLIYAASSLQSGVPSRFSGSGSGTDFTLTISSLQPEDFTTYYCQQSYSSAPTFGGGTKLEIKR | 2.3 nM | 0.000244 s⁻¹ | 106000 M⁻¹ s⁻¹ | – | –
Ha16-1(3,5)56 (antibody, V domains shown) VH: RCRLVESGAEVKKPGESLKISCKGSGYRFTSYWIGWVRQMPGKGLEWMGIIYPGDSDTRYSPSFQGQVTISADKSISTAYLQWRSLKASDTAMYYCARKDYYYYVMDVWGQGTTVTVSS VL: DTISCTGTSSDVGNYNYVSWYQQHPGKAPKLMIYAVNNRPSGVSNRFSGSKSGNTASLTISGLQAEDEADYYCSSYTSSRNLVVFGGGTKLTVLG | 14.5 nM | 0.000593 s⁻¹ | 40800 M⁻¹ s⁻¹ | 0.019 nM | –
H16-1(3,5)5 (antibody, V domains shown, Entries hold the leader (or part of it) and a portion of the constant region; also called Ha16-1(3,5)5) VH: EVQLVQSGAEVKKPGESLKISCKGSGYRFTSYWIGWVRQMPGKGLEWMGIIYPGDSDTRYSPSFQGQVTISADKSISTAYLQWSSLKASDTAMYYCARKDYYYYTMDVWGQGTTVTVSS VL: QSALTQPASVSGSPGQSITISCTGTSSDVGGYNYVSWYQQHPGKAPKLMIYAVSNRPSGVSNRFSGSKSGNTASLTISGLQAEDEADYYCSSYTISRILVVFGGGTKLTVLG | 7.2 nM | 4.76e-05 s⁻¹ | 6600 M⁻¹ s⁻¹ | – | –
Ha16-1(3,5)19 (antibody, V domains shown, Entries hold part of the leader and a portion of the constant region) VH: EVQLVQSGAEVKKPGESLKISCKGSGYRFTSYWIGWVRQMPGKGLEWMGIIYPGDSDTRYSPSFQGQVTISADKSISTAYLQWSSLKASDTAMYYCARKDYYYYAMDVWGQGTTVTVSS VL: QSALTQPASVSGSPGQSITISCTGTSSDVGRYNYVSWYQQHPGQAPKLMIYGISIRPSGVSPRFSGSKSGNTASLTISGLQAEDEADYYCSSHTSNSTLVVFAGGTKLTVLG | 1.68 nM | 8.4e-05 s⁻¹ | 50000 M⁻¹ s⁻¹ | – | –
Ha16-1(3,5)42 (antibody, V domains shown, Entries hold the leader (or part of it) and a portion of the constant region) VH: EVQLVQSGAEVKKPGESLKISCKGSGYRFTSYWIGWVRQMPGKGLEWMGIIYPGDSDTRYSPSFQGQVTISADKSISTAYLQWSSLKASDTAMYYCARKDYYYYSMDVWGQGTTVTVSS VL: QSALTQPASVSGSPGQSITISCTGTSSDVGRFNYVSWYQQRPGKAPKLMIYAVNIRPSGVSNRFSGSKSGNTASLTISGLQAEDEAGYYCSSYTSSSTLLVFGGGTKLTVLG | 4.3 nM | 0.000205 s⁻¹ | 47600 M⁻¹ s⁻¹ | – | –
Ha16-1(1)23 (antibody, V domains shown) VH: VESGGGVVQPGRSLRLSCAASGFTFRSYGMHWVRQAPGKGLEWVAVIWSDGSNKYYADSVKGRFTISRDNSKNTLYLQMNSLRAEDTAVYYCAREGYYGSGSYYYYYGMDVWGQGTTVTVSS VL: QAGLTQPPSVSKGLRQTATLTCTGNSNNVGTQGAAWLQQHQGHPPKLLSYRNNNRPSGISERLSASTSGNTASLTITGLQPEDEADYYCSAWDSSLSAVVFGGGTKLTVLG | 24 nM | 0.00088 s⁻¹ | 36000 M⁻¹ s⁻¹ | – | –
H16-9.10 (antibody, V domains shown, also called Ha16-9.10) VH: LLESGPGLVKPSQTLSLTCAISGDSVSSNSAAWNWIRQSPSRGLEWLGRTYYRSKWYNAYAVSVKSRMTINPDTSKNQFSLQLNSVTPEDTAVYYCAREAGGWFDPWGQGTLVTVSS VL: DIQMTQSPSSVSASVGDRVTITCRASQGIRSWLAWYQQKPGKAPKLLIYAASSLQSGVPSRFSGSGSGTDFTLTISSLQPEDFATYYCQQANSFPPTFGGGTKVEIKR | 7.4 nM | 0.000442 s⁻¹ | 59500 M⁻¹ s⁻¹ | 0.5 nM | –
H16-9.33 (antibody, V domains shown) VH: EVQLLESGPGLVKPSQTLSLTCAISGDSVSSNSAAWNWIRQSPSRGLEWLGRTYYRSKYYNAYPVSVKSRITINPDTSKNQFSLQLNSVTPEDTAVYYCAREAGGWFDPWGQGTLVTVSS VL: DIQMTQSPSSVSASVGDRVTITCRANQGIRSWLAWYQQKPGKAPKLLIYAASSLQSGVPSRFSGSGSGTDFTLTISSLQPEDFATYYCQQANSFPPTFGGGTKVEIKR | 3.9 nM | 0.000257 s⁻¹ | 66300 M⁻¹ s⁻¹ | – | –
Ha16-1(3,5)27.1 (antibody, V domains shown, VH entry holds part of the leader; both hold a portion of the constant region) VH: LVESGAEVKKPGESLKISCKGSGYRFTSYWIGWVRQMPGKGLEWMGIIYPGDSDTRYSPSFQGQVTISADKSISTAYLQWSSLKASDTAMYYCARKDYYYYSMDVWGQGTTVTVSS VL: GQSALTQPASVSGSPGQSITISCTGTSSDVGGYNYVSWYQQHPGQAPKLLIYGVNIRPSGVSTRFSGSKSGNTASLTISGLQAEDEADYYCSSYTRSSILVVFAGGTKLTVLG | 4.8 nM | 0.000177 s⁻¹ | 36900 M⁻¹ s⁻¹ | 0.014 nM | –
Ha16-1(1)11 (antibody, V domains shown, also called ATCC PTA-7450) VH: GPGLVKPSETLSLTCTVSGGSISSYYWSWIRQPPGKGLEWIGYIYYSGSTNYNPSLKSRVTISVDTSKNQFSLKLSSVTAADTAVYYCARAVSYYYYGMDVWGQGTTVTVSS VL: DIQMTQSPSSLSASVGDRVTITCRTIQNINSYLNWYQQRPGKAPKLLIYATSSLQSGVPSRFSGSGSGTDFTLTISSLQPEDFATYYCQQTYSTLFTFGPGTKVDIKR | 21.7 nM | 0.00143 s⁻¹ | 65800 M⁻¹ s⁻¹ | 0.004 nM | –
Ha16-1(3,5)18 (antibody, IgG1, V domains shown, The limits of VH (1-114) and VL (1-108) are stated in CLM-00001; the entries also hold a portion of the constant region; also called Ha16-1(3, 5)18.1; ATCC PTA-7452) VH: GPGLVKPSETLSLTCTVPGGSIRSYFWSWIRQPAGKGLEWIGRFYFSGSTNYNPSLKSRVTMSVDTSKNQFSLKLSSVTAADTAVYYCARDYGDHYYYYGMDVWGQGTTVTVSS VL: VLTQPPSVSAAPGQKVTISCSGSSSNIGNNYVSWYQQFPGTAPKFLIYDNNKRSSGIPDRFSGSKSGTSATLGITGLQTGDEADYYCGTWDSSLSAVIFGGGTKLTVL | 28 nM | 0.00062 s⁻¹ | 22000 M⁻¹ s⁻¹ | 0.047 nM | –
H16-7.213 (antibody, V domains shown) VH: WGLSEVSCKASGYTFTGYYMHWVRQAPGQGLEWMGWINPNSGGTNYAQKFQGRVTMTRDTSISTAYMELSRLRSDDTAVYYCARELRYFGWLLSSLDYWGQGTLVTVSS VL: DIQMTQSPSSLSASVGDRVTITCRASQSISSYLNWFQQKPGKAPKLLIYAASSLQSGVPSRFSGSESGTDFTLTISSLQPEDFATYSCQQSYSFPLTFGGGTKVEIKR | 3.9 nM | 0.000509 s⁻¹ | 129000 M⁻¹ s⁻¹ | – | –
H16-7.8 (antibody, V domains shown, Entries hold the leader and a portion of the constant region) VH: QVQLQESGPGLVKPSQTLSLTCTVSGGSISSGGYYWSWIRQHPGKGLEWIGIIYYSGSTYYNPSLKSRVTISVDTSKNQFSLKLNSVTAADTAVFYCARVAIVTTIPGGMDVWGQGTTVTVSS VL: EIVLTQSPDFQSVTPKEKVTITCRASQSIGISLHWYQQKPDQSPKLLIKYASQSFSGVPSRFSGSGSGTDFTLTINSLEAEDAATYYCHQSRSFPWTFGQGTKVEIKR | 18 nM | 0.00063 s⁻¹ | 35000 M⁻¹ s⁻¹ | 0.07 nM | –
H16-1.93 (antibody, V domains shown, Entries hold the leader (or part of it) and a portion of the constant region; also called ATCC PTA-7449) VH: QVQLVQSGAEVKKPGASVKVSCKASGYTFTSYGISWVRQAPGQGLEWMGWISAYNGNTYYAQKLQARVTMTTDTSTSTAYMELRSLRSDDTAVYYCARDGYSSSWSLLHYYGMDVWGQGTTVTVSS VL: DIQMTQSPSSLSASVGDRITITWRSSQGIYNSLAWYQQKPGKVPKLLIYAASTLHSGVPSRFSGSGSGTDFTLTISSLQPEDVATYYCQKYNSAPFTFGPGTKVDIKR | – | – | – | 0.09 nM | –
